Source: patent US20210163580A1 (NATIONAL HEALTH RESEARCH INSTITUTES, published 2021)
No end group written: not given here. *: point of attachment. Biotin = O=C1N[C@H]2[C@H](CS[C@H]2CCCCC(=O)*)N1

Experiments:
RSPO2 [1] = biological target: T1, RSPO2 (UniProt Q6UXX9 22-243, limits assumed); experiment: Western blot: RSPO1-4 on the blot, probed with the hybridoma antibody [A]
RSPO1 [2] = biological target: T2, RSPO1 (UniProt Q2MKA7 21-263, limits assumed); experiment: as above
RSPO4 [3] = biological target: T3, RSPO4 (UniProt Q2I0M5 20-234, limits assumed); experiment: as above
KGRERKRKKP = biological target: T4, KGRERKRKKP; experiment: PepSet ELISA: biotinylated 10-mer on NeutrAvidin plate, antibody 10 µg/ml, OD450 [C]
T4 construct: member of the PepSet library m27
T4 peptide: Biotin-SGSGKGRERKRKKP
Description: (§1) FIG. 8 is a set of graphs showing mapping of the α-RSPO3 Ab epitopes on RSPO3 protein by Pep-set.
(§2) The deduced amino acid sequence of RSPO3 (GenBank accession no. NP_116173) was used as the reference sequence to design the PepSet library of biotinylated linear peptides that cover the mature domain of RSPO3. The 121 peptides synthesized by Mimotopes (Victoria, Australia) were 10 amino acids in length and offset by 2 residues in these two formats: Biotin-SGSG-PEPTIDE-NH2 for N-terminal peptide and Biotin-SGSG-PEPTIDE-OH for the C-terminal peptide. The peptides (1-3 mg) were dissolved in 200 microliter 80/20 DMSO/water mixture and further diluted at 1:200 in PBS containing 0.1% BSA and 0.1% sodium azide as working solution. In order to attach different biotinylated peptides on each well of the plates, plates coated with NeutrAvidin and blocked with BSA (Thermo Scientific Pierce, Rockford, Ill.) were utilized. Plates were washed three times with 1× PBS with 0.1% Tween 20 and then […] biotinylated peptide solution was applied to each well of plates. After one hour incubation at room temperature, plates were washed three times again with 1× PBST. α-RSPO3 antibodies at 10 μg/ml were then added to each well of plates and the plates were incubated with agitation for one hour. […] To detect bound anti-RSPO3 antibodies, Goat anti-human IgG-Fc-HPR was then applied to plates for one hour. After removing extra detection antibodies by washing the plates with 1× PBST, 100 μl Tetramethylbenzidine (TMB) substrate solution was added to each well for 20 minutes.

RENKQQQKKR = biological target: T5, RENKQQQKKR; experiment: as above
T5 construct: member of the PepSet library m27
T5 peptide: Biotin-SGSGRENKQQQKKR
Description: as §1, §2

ERGKKGRERK = biological target: T6, ERGKKGRERK; experiment: as above
T6 construct: member of the PepSet library m27
T6 peptide: Biotin-SGSGERGKKGRERK
Description: as §1, §2

GKKGRERKRK = biological target: T7, GKKGRERKRK; experiment: as above
T7 construct: member of the PepSet library m27
T7 peptide: Biotin-SGSGGKKGRERKRK
Description: as §1, §2

[4] = biological target: T8, recombinant human RSPO3 protein (human, UniProt Q9BXY4 22-272); experiment: BLI (Octet, ForteBio); biotinylated RSPO3 on streptavidin sensors
T8 construct: Used biotinylated on Octet sensors, immobilised on a CM5 chip in Biacore, and coated on ELISA plates; also called hRSPO3; huRSPO3
T8 sequence (looked up): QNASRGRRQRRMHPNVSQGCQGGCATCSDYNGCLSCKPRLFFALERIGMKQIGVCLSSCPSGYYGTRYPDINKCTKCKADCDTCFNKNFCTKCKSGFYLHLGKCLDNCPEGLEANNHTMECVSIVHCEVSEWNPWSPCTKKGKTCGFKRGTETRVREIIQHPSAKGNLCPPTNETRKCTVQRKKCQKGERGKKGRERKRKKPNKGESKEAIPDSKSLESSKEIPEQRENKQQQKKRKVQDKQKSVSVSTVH
Method: The streptavidin-coated sensors were coated with 10 μg/ml of biotinylated RSPO3 as described in the handbook of ForteBio. Antibody concentrations were in the range of 0.75 and 93.8 nM. Quantitative kinetic binding analysis was performed with pH-adjusted PBS with 0.5% BSA. All steps were run at 30° C. with a continuous shaking speed at 1000 rpm.
To assess the RSPO3-binding affinities of the antibodies, kinetics assays were performed by the Octetsystems.

RSPO2 [5] = biological target: T1, RSPO2; experiment: ELISA on coated antigen (BSA, RSPO1, RSPO2, RSPO3, RSPO4), absorbance 450 nm [A]
RSPO1 [6] = biological target: T2, RSPO1; experiment: as above
RSPO4 [7] = biological target: T3, RSPO4; experiment: as above
[8] = biological target: T8, recombinant human RSPO3 protein; experiment: SPR (Biacore T200); hRSPO3 immobilised on CM5 chip, antibody injected, single-cycle, 1:1 model
Method: FIG. 7 is a graph showing use of Biacore to measure the binding kinetics of α-RSPO3 Abs-antigen interaction. The binding sensorgrams were generated using a Biacore T200 and then fitted to a simple 1:1 interaction model. […] The association was monitored for 2 min, and the final dissociation time was 15 min hRSPO3 was immobilized on a CMS chip at 27.5 RU.
The binding kinetics between α-RSPO3 Abs and recombinant human RSPO3 protein (hRSPO3) were performed at 25° C. using a Biacore T200 biosensor equipped with a CMS Series S Sensor Chip (GE Healthcare). […] Obtained sensorgrams were corrected by double subtracting the signal obtained on a reference surface and the signal of the running buffer. Sensograms were fit globally with BIAcore T200 evaluation software 3.0 using 1:1 binding model to yield affinity constants (KD values) for α-RSPO3 Abs. Replicate measurements were made in separate experiments, using independently prepared α-RSPO3 Abs dilution series and huRSPO3-coated chip surfaces.

[9] = biological target: T8, recombinant human RSPO3 protein; experiment: cell-based or functional assay
[10] = biological target: T8, recombinant human RSPO3 protein; experiment: ELISA on coated antigen (BSA, RSPO1, RSPO2, RSPO3, RSPO4), absorbance 450 nm [B]
RSPO2 [11] = biological target: T1, RSPO2; experiment: Western blot: RSPO1-4 on the blot, probed with the hybridoma antibody [B]
RSPO1 [12] = biological target: T2, RSPO1; experiment: as above
RSPO4 [13] = biological target: T3, RSPO4; experiment: as above

T1 sequence (Q6UXX9 22-243 limits assumed): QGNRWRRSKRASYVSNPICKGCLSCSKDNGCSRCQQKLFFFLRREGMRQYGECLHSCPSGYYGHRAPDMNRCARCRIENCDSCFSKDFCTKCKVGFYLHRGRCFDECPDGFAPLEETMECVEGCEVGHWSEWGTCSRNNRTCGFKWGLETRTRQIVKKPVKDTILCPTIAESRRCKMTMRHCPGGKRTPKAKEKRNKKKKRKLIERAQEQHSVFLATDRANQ
T2 sequence (Q2MKA7 21-263 limits assumed): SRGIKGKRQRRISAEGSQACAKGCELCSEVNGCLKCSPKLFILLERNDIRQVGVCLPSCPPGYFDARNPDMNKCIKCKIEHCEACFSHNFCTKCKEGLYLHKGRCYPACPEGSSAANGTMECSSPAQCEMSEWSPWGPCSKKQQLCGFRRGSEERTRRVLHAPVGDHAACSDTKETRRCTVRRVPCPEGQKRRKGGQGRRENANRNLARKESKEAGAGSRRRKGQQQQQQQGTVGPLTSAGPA
T3 sequence (Q2I0M5 20-234 limits assumed): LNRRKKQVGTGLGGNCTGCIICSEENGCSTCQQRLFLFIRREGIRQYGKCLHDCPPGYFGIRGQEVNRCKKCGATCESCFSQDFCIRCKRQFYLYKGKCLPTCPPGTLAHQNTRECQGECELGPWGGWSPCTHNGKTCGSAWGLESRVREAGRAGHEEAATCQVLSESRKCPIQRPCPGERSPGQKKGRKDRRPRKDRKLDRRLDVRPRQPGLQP

B1: anti-RSPO3 hybridoma antibody A6 (antibody, IgG2a, V domains shown)
VH: QVQLQQSGAEIVRSGASVKLSCTASGFSITEYYIHWVKQRPDQGLEWIGMIDPENGDTDYAPKFQGKATMTADTSSNTVNLQLSSLTSEDTAVYYCHGPGPLEYWGQGTTLTVSS
VL: DIVMTQSPLSLPVSLGDQASISCRSSQSIVHSNGNTYLEWYLQKPGQSPNLLIYRVSNRFSGVPDRFNGSGSGTDFTLKISRVEPEDLGVYSCFQASHVPYTFGGGTKLEIKR
notes: Murine hybridoma mAb; also called clone A6; hybridoma A6
- binding result (RSPO2 [1]): no binding
- binding result (RSPO1 [2]): no binding
- binding result (RSPO4 [3]): no binding
- binding result (KGRERKRKKP): binds
- binding result (RENKQQQKKR): binds
- binding result (ERGKKGRERK): binds
- binding result (GKKGRERKRK): binds
- Kd [4]: 10.4 nM
- koff [4]: 0.0025 s⁻¹
- kon [4]: 241000 M⁻¹ s⁻¹

B2: anti-RSPO3 hybridoma antibody A4 (antibody, IgG1, V domains shown)
VH: QVQLQESGAELAKPGASVKMSCKASGHTLTYYWMHWVKQRPGQGLEWIGYIDPSTGYSEYNQRFEGKATLTADKSSGTVYMQLSSLTSEDSAVYYCARNGPFAYWGQGTLVTVSA
VL: DNVLTQSPAIMSASPGEKVTMTCSASSSVNYMYWYQQKPGSSPRLLIYDTSKLASGVPVRFSGSGSGTSYSLTISRMEAEDAATYYCQQWSSSPLTFGVGAKLEIKR
notes: Murine hybridoma mAb; also called clone A4; hybridoma A4
- binding result (RSPO2 [5]): no binding
- binding result (RSPO1 [6]): no binding
- binding result (RSPO4 [7]): no binding
- Kd [4]: 27 nM
- koff [4]: 0.000884 s⁻¹
- kon [4]: 32700 M⁻¹ s⁻¹

B3: reference anti-RSPO3 antibody 131R002 (antibody, V domains shown)
VH: QVQLQESGPELVKPGASVKISCKASGYTFTDYSIHWVKQNHGKSLDWIGYIYPSNGDSGYNQKFKNRATLTVDTSSSTAYLEVRRLTFEDSAVYYCATYFANYFDYWGQGTTLTVSS
VL: DIVLTQSPASLAVSLGQRATISCKASQSVDYDGDSYMNWYQQKPGQPPKLLIYAASNLESGIPARFSGSGSGTDFTLNIHPVEEEDAATYYCQQSNEDPLTFGAGTKLELKR
- Kd [4]: 1.93 nM
- koff [4]: 0.00202 s⁻¹
- kon [4]: 1.05e+06 M⁻¹ s⁻¹

B4: rosmantuzumab (131R010) (antibody, V domains shown)
VH: QVQLVQSGAEVKKPGASVKVSCKASGYTFTDYSIHWVRQAPGQGLEWIGYIYPSNGDSGYNQKFKNRVTMTRDTSTSTAYMELSRLRSEDTAVYYCATYFANNFDYWGQGTTLTVSS
VL: DIQMTQSPSSLSASVGDRVTITCKASQSVDYDGDSYMNWYQQKPGKAPKLLIYAASNLESGVPSRFSGSGSGTDFTLTISPVQAEDFATYYCQQSNEDPLTFGAGTKLELK
- Kd [8]: 0.02 nM
- koff [8]: 0.000181 s⁻¹
- kon [8]: 9.4e+06 M⁻¹ s⁻¹
- IC50 in the WNT reporter assay (MDA-MB436 TCF/LEF-Luc, Wnt3a plus hRSPO3) [9]: 58.7 nM

B5: anti-RSPO3 hybridoma antibody B1 (antibody, IgG1, V domains shown)
VH: QIQLQESGPGLVKPSQSLSLTCSVTGYSITSGYYWNWIRQFPGNKLEWMGYISYDGTNNYNPSLKDRISITRDTSMNQFFLKLNSVTTEDTATYYCSVLLIQYFNIWGAGTTVTVSS
VL: DIQMTQSPASLSASVGETVTITCRTSESVNNFLAWFHQKQGKSPQLLVYHAKTLADGVSSRFSGSGSGTQYSLKINSLQPEDFGNYYCQHFWSIPWTFGGGTKLEIKR
notes: Murine hybridoma mAb; also called clone B1
- binding result [10]: binds
- binding result (RSPO2 [11]): no binding
- binding result (RSPO1 [12]): no binding
- binding result (RSPO4 [13]): no binding
